Laboratory results from US20100202970A1.

What was measured:
[1] = target: PKC substrate C-terminally tagged with the yellow fluorescent protein YPet; assay: cell-based or functional assay
[2] = target: PKA substrate (modified Kemptide containing a consensus phosphorylation site for Protein Kinase A) C-terminally tagged with the yellow fluorescent protein YPet; assay: cell-based or functional assay

## FHA1 (forkhead associated domain 1 of the yeast protein Rad53) tagged at its N-terminus with the cyan fluorescent protein Cerulean (from UniProt P22216 22-162)
[1]
  increase in yellow/cyan emission ratio (intermolecular FRET) after PMA in 1205-Lu cells co-expressing both constructs: 30%
[2]
  increase in yellow/cyan emission ratio (intermolecular FRET) after Forskolin in 1205-Lu cells co-expressing both constructs: 60%
